Experimental data published in paper PMC5650642.

Tests used:
[1] = target: T1, His-OpaR (Vibrio parahaemolyticus RIMD2210633) (UniProt Q79YV4); assay: DNase I footprinting
T1 sequence: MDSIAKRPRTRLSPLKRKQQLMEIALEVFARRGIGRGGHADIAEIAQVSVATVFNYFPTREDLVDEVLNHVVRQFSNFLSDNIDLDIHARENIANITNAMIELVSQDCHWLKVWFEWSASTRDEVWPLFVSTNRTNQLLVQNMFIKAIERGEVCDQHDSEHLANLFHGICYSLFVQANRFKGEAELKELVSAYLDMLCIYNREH

[2] = target: His-ToxR (Vibrio parahaemolyticus RIMD2210633) (UniProt Q05938); assay: DNase I footprinting
Chain of UniProt Q05938 (Q05938 1-176): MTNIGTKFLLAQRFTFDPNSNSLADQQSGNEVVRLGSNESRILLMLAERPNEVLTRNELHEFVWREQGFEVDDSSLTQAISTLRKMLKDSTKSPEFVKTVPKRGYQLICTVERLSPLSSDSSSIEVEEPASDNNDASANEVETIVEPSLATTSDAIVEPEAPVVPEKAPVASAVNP

Row | Sequence | binding [1] | binding [2]
1 | ACACTTTGCACTCTTTTATGGAACAAATATTATTAGACCGAAATAATATTTGCTGAAACATCCTTGTTTCAAGGGTAGTATTTAAAACGAACAGTAAGCCTATTATTTTAGTTATAATTACTAAGTTATTAGACTCTTTGACTTACGCTTTCACTACCTGAATTACGTTGTTTTAGAAATTAAAATTTCAACAACGTAATATGACTTCATTTTCATTATATATTTCGACAAAGAATGATTAGCACGC (double strand) [VP1400 footprinting fragment] | binds | binds
2 | ATTCTCCACAACCAACATCGTAAACATGGTTGCGGTGACGTTTAAGCTGATAAGGCTTACAAGTACGATTTGGTGTGCTAATGCTACTAATTTAATTCATAACATTCAATCACATAGAAAACTTCCAGAAAACCGAAATGCCCGAGAAATAACAAAACCACAGGTTATTTGGTTGTTTTAACTATCAATTCAAACTTATTACCCTTCAATCCAACTCAAAAGGCAGGCTTTAAGCAAAAACAGTTTTTTACTTTTGGGCAGAAGTTAACAAATTCAA (double strand) [VP1388 footprinting fragment] | binds | –
3 | CGCTTGGATTACTTTCATCGATCGGTCTTCTTGTGAAGTCGCTGAAAAACATAATGTTAAGTTCCAACTGAGTTGATAATAAAATAATAAAGATAGATTTTTTTATTGTATTCGCCTGCTATGCCAAATGACATGCAATGCATTTTTTCTGATTTTATAGATAAAAAAAGATTTTTAGACAATAAAAAGCCGATAAATCTAATTAAAATCCATTTTGTGTGATCTTTGTTCCTAAT (double strand) [VP1409 footprinting fragment(s)] | binds | binds
